Results published in patent US8911422B2, “Micro-needle device” (Hisamitsu Pharmaceutical Co., Inc., priority 2010, dated 2014).

Test system: rats
Assay: in vivo injection with micro-needle device (Example 2), availability
Parameters: species or system rat
Details: coating range 200 μm
Procedure: A micro-needle device similar to that of Example 1 was used to perform in vivo injection (rats) to determine availability. Here, 14C-OVA was coated on each of the micro-needles, and a coating range thereof was 200 μm in height including the top of the micro-needle concerned (that is, the range H=200 μm in FIG. 3 (c)). The 14C-OVA coated on the micro-needle device was about 100 μg in total, and pullulan, that is, a coating carrier, was about 100 μg in total.
On injection, used was a spring impact-type applicator capable of giving an impact due to the elastic energy of 0.4 J/cm^2 to the back face of the micro-needle device. The elastic energy of the spring impact-type applicator is determined by the above-described formula (I). A spring constant for yielding the elastic energy of 0.4 J/cm^2 was 0.569 N/mm. In order to determine the availability, a Geiger-Muller (GM) counter tube was used to count radiant rays, and the measurement result was applied to a previously prepared calibration curve to determine an initially coated quantity and a quantity remaining on the micro-needle device peeled after puncture. Then, the remaining quantity was divided by the initially coated quantity to determine the availability.

B1: 14C-OVA (protein, UniProt P01012 2-386, looked up)
Ovalbumin: GSIGAASMEFCFDVFKELKVHHANENIFYCPIAIMSALAMVYLGAKDSTRTQINKVVRFDKLPGFGDSIEAQCGTSVNVHSSLRDILNQITKPNDVYSFSLASRLYAEERYPILPEYLQCVKELYRGGLEPINFQTAADQARELINSWVESQTNGIIRNVLQPSSVDSQTAMVLVNAIVFKGLWEKAFKDEDTQAMPFRVTEQESKPVQMMYQIGLFRVASMASEKMKILELPFASGTMSMLVLLPDEVSGLEQLESIINFEKLTEWTSSNVMEERKIKVYLPRMKMEEKYNLTSVLMAMGITDVFSSSANLSGISSAESLKISQAVHAAHAEINEAGREVVGSAEAGVDAASVSEEFRADHPFLFCIKHIATNAVLFFGRCVSP
modifications: 14C radiolabel
notes: 14C-OVA coated on the micro-needles with pullulan as coating carrier
**Q.** Which availability (impact 0.4 J/cm^2 given once) does the source give for B1 here?
**A.** 38%

**Q.** And the availability (impact 0.4 J/cm^2 once, then pushed one minute at 1 kg/patch)?
**A.** 42%

**Q.** What about the availability (impact 0.4 J/cm^2 once, then pushed one minute at 3 kg/patch) of the same molecule?
**A.** 58%
